Results taken from patent US20210079074A1.
Positions count from the first letter of the chain named.

B1: anti-MS4A4A antibody 4A-357 (antibody, V domains shown)
VH: QVQLVQSGSELKKPGASVKVSCKASGYIFTSYGLSWVRQAPGQGLEWMGWINTYSGVPTYAQGFTGRFVFSLDTSVSTAYLQISSLKAEDTAVYYCARTLADYWGQGTLVTVSS
VL: DVVMTQSPLSLPVTLGQPASISCKSSQSLLYSDGKTYLSWFQQRPGQSPRRLIYEVSKLDSGVPDRFSGSGSGTDFTLKISRVEAEDVGVYYCWQGIDFHQTFGGGTKVEIK
B2: anti-MS4A4A antibody 4A-359 (antibody, V domains shown)
VH: B1 VH
VL: B1 VL with S25A, E55L, T74A
B3: anti-MS4A4A antibody 4A-361 (antibody, V domains shown)
VH: B1 VH
VL: B1 VL with E55L, D60E
B4: anti-MS4A4A antibody 4A-363 (antibody, V domains shown)
VH: B1 VH
VL: B1 VL with E55L, D60S
B5: anti-MS4A4A antibody 4A-364 (antibody, V domains shown)
VH: B1 VH with I28T, V37I, L100M, A101V
VL: B1 VL with S25A, E55L, T74A
B6: anti-MS4A4A antibody 4A-365 (antibody, V domains shown)
VH: B1 VH with I28T, V37I, L100M, A101V
VL: B1 VL with E55L, D60S
B7: anti-MS4A4A antibody 4A-366 (antibody, V domains shown)
VH: B1 VH with I28T, V37I, L100M, A101V
VL: B1 VL with Q27R, E55L
B8: anti-MS4A4A antibody 4A-367 (antibody, V domains shown)
VH: B1 VH with I28T, V37I, L100M, A101V
VL: B1 VL with E55L
B9: anti-MS4A4A antibody 4A-368 (antibody, V domains shown)
VH: B1 VH with I28T, V37I, L100M, A101V
VL: B1 VL with E55L, D60E
B10: anti-MS4A4A antibody 4A-370 (antibody, V domains shown)
VH: B1 VH with A101G
VL: B1 VL with S26G, E55L, K58R
B11: anti-MS4A4A antibody 4A-371 (antibody, V domains shown)
VH: B1 VH with A101G
VL: B1 VL with E55L
B12: anti-MS4A4A antibody 4A-372 (antibody, V domains shown)
VH: B1 VH with A101G
VL: B1 VL with E55L, K58R
B13: anti-MS4A4A antibody 4A-374 (antibody, V domains shown)
VH: B1 VH with T65A, A101V
VL: B1 VL with Q27R, E55L
B14: anti-MS4A4A antibody 4A-375 (antibody, V domains shown)
VH: B1 VH with T99S
VL: B1 VL with Q27R, E55L
B15: anti-MS4A4A antibody 4A-21 (antibody, V domains shown)
VH: QIQLVQSGPELKKPGETVKISCKASGYIFTSYGLSWVKQTPGKGLKWMGWINTYSGVPTYANDFKGRFAFSLETSASTTYLRINNLKNDDTATYFCARSLVDYWGQGTPLTVSS
VL: not shown

The binders below were run against recombinant MS4A4A soluble polypeptide JS5 (assay: ELISA, 0.4 ug/ml antibody). Settings: not given.

B1 and B2 are the same in OD450: 0.892 for the first, 0.892 for the second.

First: B3
Second: B4
The OD450 of the first is lower: 0.79 for the first, 0.833 for the second.

Going from B5 to B6, the OD450 falls from 0.959 to 0.845.

First: B7
Second: B8
The OD450 of the first is lower: 0.875 for the first, 0.961 for the second.

Going from B9 to B10, the OD450 falls from 0.901 to 0.822.

Going from B11 to B12, the OD450 falls from 0.955 to 0.873.

First: B13
Second: B14
The OD450 of the first is lower: 0.833 for the first, 0.996 for the second.

The binders below were run against human MS4A4A (human), Q96JQ5 (assay: FACS, U937-huMS4A4A, 5 ug/ml). Settings: remark: other sources report otherwise.

With B15 the MFI was 18800.

Molecular target: human MS4A4A (human), Q96JQ5
Assay: FACS, U937-huMS4A4A, 5 ug/ml
Settings: remark: other sources report otherwise
Remark: another data set of the same source

Work on B15 yielded an MFI of 670.
